From patent publication US20180030151A1 (MOGAM INSTITUTE FOR BIOMEDICAL RESEARCH, published 2018)
Positions count from the first letter of the chain named. Read-outs that look alike come from different tables or passages of the source.

Experiments:
[1] = biological target: T1, recombinant human TFPI (tissue factor pathway inhibitor) (human, UniProt P10646 29-304); assay: cell-based or functional assay
[2] = biological target: T1, recombinant human TFPI (tissue factor …); assay: cell-based or functional assay; remark: listed apart in the source
[3] = biological target: T1, recombinant human TFPI (tissue factor …); assay: cell-based or functional assay; remark: listed apart in the source
[4] = biological target: T1, recombinant human TFPI (tissue factor …); assay: cell-based or functional assay; remark: listed apart in the source
[5] = biological target: T1, recombinant human TFPI (tissue factor …); assay: cell-based or functional assay; remark: listed apart in the source
[6] = biological target: T1, recombinant human TFPI (tissue factor …); assay: cell-based or functional assay; remark: listed apart in the source
[7] = biological target: T1, recombinant human TFPI (tissue factor …); assay: cell-based or functional assay; remark: listed apart in the source
[8] = biological target: T1, recombinant human TFPI (tissue factor …); assay: cell-based or functional assay; remark: listed apart in the source
[9] = biological target: T1, recombinant human TFPI (tissue factor …); assay: cell-based or functional assay; remark: listed apart in the source
[10] = biological target: T1, recombinant human TFPI (tissue factor …); assay: cell-based or functional assay; remark: listed apart in the source
[11] = biological target: T1, recombinant human TFPI (tissue factor …); assay: cell-based or functional assay; remark: listed apart in the source
[12] = biological target: T1, recombinant human TFPI (tissue factor …); assay: cell-based or functional assay; remark: listed apart in the source
[13] = biological target: T1, recombinant human TFPI (tissue factor …); assay: SPR, Biacore T-200; TFPI immobilised on CM5 chip, IgG as analyte
Protocol: 10 mM of glycine-HCl (pH 1.5) was run at a flow rate of 30 μL/min for 30 seconds, thereby inducing the dissociation of the antibody associated with the TFPI. The affinity in terms of kinetic rate constants (Kₒₙ and Koff) and equilibrium dissociation constant

[14] = biological target: TFPI in FVIII-deficient plasma (sample dilution); assay: cell-based or functional assay

B1: clone 308-4 (antibody, V domains shown)
VH: EVQLVESGGGLVKPGGSLRLSCAASGFTFSSYAMNWVRQAPGKGLEWVSTITTGGSYTYYADSVEGRFTISRDNAKNSLYLQMNSLRAEDTAVYYCARQDGNFLMDYWGQGTLVTVSS
VL: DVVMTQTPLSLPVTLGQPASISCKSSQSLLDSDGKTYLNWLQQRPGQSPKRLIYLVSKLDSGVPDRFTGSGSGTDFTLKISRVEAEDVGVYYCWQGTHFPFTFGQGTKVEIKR
For B1, the “TFPI inhibitory activity, FXa activity assay, Ab 10 nM” value [1] was 78%, the “TFPI inhibitory activity, FXa activity assay, Ab 40 nM” value [1] was 82% and the “TFPI inhibitory activity, TF/FVIIa/FXa complex assay, Ab 50 nM” value [1] was 100%. The “TFPI inhibitory activity, TF/FVIIa/FXa complex assay, Ab 100 nM” value [1] was 100%, the “A405, TF/FVIIa/FX complex assay, Ab 1.56 nM” value [2] was 0.135 and the “A405, TF/FVIIa/FX complex assay, Ab 3.13 nM” value [2] was 0.155. The “A405, TF/FVIIa/FX complex assay, Ab 6.25 nM” value [2] was 0.177, the “A405, TF/FVIIa/FX complex assay, Ab 12.5 nM” value [2] was 0.223 and the “A405, TF/FVIIa/FX complex assay, Ab 25 nM” value [2] was 0.664. The “A405, TF/FVIIa/FX complex assay, Ab 50 nM” value [2] was 0.926, the “A405, TF/FVIIa/FX complex assay, Ab 100 nM” value [2] was 0.938 and the “% of Normalized, TF/FVIIa/FX complex assay, Ab 1.56 nM” value [3] was 14.7%. For the same binder, the “% of Normalized, TF/FVIIa/FX complex assay, Ab 3.13 nM” value [3] was 16.8%, the “% of Normalized, TF/FVIIa/FX complex assay, Ab 6.25 nM” value [3] was 19.2% and the “% of Normalized, TF/FVIIa/FX complex assay, Ab 12.5 nM” value [3] was 24.2%. For the same binder, the “% of Normalized, TF/FVIIa/FX complex assay, Ab 25 nM” value [3] was 72.3%, the “% of Normalized, TF/FVIIa/FX complex assay, Ab 50 nM” value [3] was 101% and the “% of Normalized, TF/FVIIa/FX complex assay, Ab 100 nM” value [3] was 102%. The “A405, TF/FVIIa/FX complex assay, Ab 1.56 nM” value [4] was 0.154, the “A405, TF/FVIIa/FX complex assay, Ab 3.13 nM” value [4] was 0.164 and the “A405, TF/FVIIa/FX complex assay, Ab 6.25 nM” value [4] was 0.185. For the same binder, the “A405, TF/FVIIa/FX complex assay, Ab 12.5 nM” value [4] was 0.222, the “A405, TF/FVIIa/FX complex assay, Ab 25 nM” value [4] was 0.716 and the “A405, TF/FVIIa/FX complex assay, Ab 50 nM” value [4] was 0.909. For the same binder, the “A405, TF/FVIIa/FX complex assay, Ab 100 nM” value [4] was 0.926, the “% of Normalized, TF/FVIIa/FX complex assay, Ab 1.56 nM” value [5] was 16.1% and the “% of Normalized, TF/FVIIa/FX complex assay, Ab 3.13 nM” value [5] was 17.2%. The “% of Normalized, TF/FVIIa/FX complex assay, Ab 6.25 nM” value [5] was 19.4%, the “% of Normalized, TF/FVIIa/FX complex assay, Ab 12.5 nM” value [5] was 23.2% and the “% of Normalized, TF/FVIIa/FX complex assay, Ab 25 nM” value [5] was 75%. For the same binder, the “% of Normalized, TF/FVIIa/FX complex assay, Ab 50 nM” value [5] was 95.2%, the “% of Normalized, TF/FVIIa/FX complex assay, Ab 100 nM” value [5] was 97% and the “FXa assay % of FXa alone, 0.625 nM Ab, 10 nM TFPI” value [6] was 4%. The “FXa assay % of FXa alone, 2.5 nM Ab, 10 nM TFPI” value [6] was 8%, the “FXa assay OD, 0.625 nM Ab, 10 nM TFPI” value [6] was 0.042 OD and the “FXa assay OD, 2.5 nM Ab, 10 nM TFPI” value [6] was 0.083 OD. The “FXa assay OD, 10 nM Ab, 10 nM TFPI” value [6] was 0.765 OD, the “FXa assay OD, 40 nM Ab, 10 nM TFPI” value [6] was 0.804 OD and the “TF/FVIIa/FXa assay % of 0 nM TFPI, 12.5 nM Ab, 50 nM TFPI” value [7] was 20.7%. The “TF/FVIIa/FXa assay % of 0 nM TFPI, 50 nM Ab, 50 nM TFPI” value [7] was 111%, the “TF/FVIIa/FXa assay % of 0 nM TFPI, 100 nM Ab, 50 nM TFPI” value [7] was 111% and the “TF/FVIIa/FXa assay OD, 12.5 nM Ab, 50 nM TFPI” value [7] was 0.166 OD. For the same binder, the “TF/FVIIa/FXa assay OD, 25 nM Ab, 50 nM TFPI” value [7] was 0.548 OD, the “TF/FVIIa/FXa assay OD, 50 nM Ab, 50 nM TFPI” value [7] was 0.886 OD and the “TF/FVIIa/FXa assay OD, 100 nM Ab, 50 nM TFPI” value [7] was 0.89 OD. The “FXa assay % of FXa alone, 2.5 nM Ab, 10 nM TFPI” value [8] was 8.3%, the “FXa assay % of FXa alone, 5 nM Ab, 10 nM TFPI” value [8] was 59.8% and the “FXa assay % of FXa alone, 10 nM Ab, 10 nM TFPI” value [8] was 73.9%. For the same binder, the “FXa assay % of FXa alone, 20 nM Ab, 10 nM TFPI” value [8] was 74.1%, the “FXa assay OD, 2.5 nM Ab, 10 nM TFPI” value [8] was 0.06 and the “FXa assay OD, 5 nM Ab, 10 nM TFPI” value [8] was 0.43. The “FXa assay OD, 10 nM Ab, 10 nM TFPI” value [8] was 0.531, the “FXa assay % of FXa alone, 2.5 nM Ab, 10 nM TFPI” value [9] was 9.9% and the “FXa assay % of FXa alone, 5 nM Ab, 10 nM TFPI” value [9] was 56.8%. The “FXa assay % of FXa alone, 10 nM Ab, 10 nM TFPI” value [9] was 76.8%, the “FXa assay % of FXa alone, 20 nM Ab, 10 nM TFPI” value [9] was 77.3% and the “FXa assay OD, 2.5 nM Ab, 10 nM TFPI” value [9] was 0.0765. For the same binder, the “FXa assay OD, 5 nM Ab, 10 nM TFPI” value [9] was 0.438, the “FXa assay OD, 10 nM Ab, 10 nM TFPI” value [9] was 0.591 and the “FXa assay % of FXa alone, 2.5 nM Ab, 10 nM TFPI” value [10] was 8.5%. The “FXa assay % of FXa alone, 5 nM Ab, 10 nM TFPI” value [10] was 26.5%, the “FXa assay % of FXa alone, 10 nM Ab, 10 nM TFPI” value [10] was 57.9% and the “FXa assay % of FXa alone, 20 nM Ab, 10 nM TFPI” value [10] was 67%. For the same binder, the “FXa assay OD, 2.5 nM Ab, 10 nM TFPI” value [10] was 0.041, the “FXa assay OD, 5 nM Ab, 10 nM TFPI” value [10] was 0.129 and the “FXa assay OD, 10 nM Ab, 10 nM TFPI” value [10] was 0.28. For the same binder, the “FXa assay OD, 20 nM Ab, 10 nM TFPI” value [10] was 0.325, the “FXa assay % of FXa alone, 2.5 nM Ab, 10 nM TFPI” value [11] was 8.6% and the “FXa assay % of FXa alone, 5 nM Ab, 10 nM TFPI” value [11] was 30.7%. For the same binder, the “FXa assay % of FXa alone, 10 nM Ab, 10 nM TFPI” value [11] was 60.4%, the “FXa assay % of FXa alone, 20 nM Ab, 10 nM TFPI” value [11] was 71.6% and the “FXa assay OD, 2.5 nM Ab, 10 nM TFPI” value [11] was 0.069. For the same binder, the “FXa assay OD, 5 nM Ab, 10 nM TFPI” value [11] was 0.247, the “FXa assay OD, 10 nM Ab, 10 nM TFPI” value [11] was 0.487 and the “FXa assay OD, 20 nM Ab, 10 nM TFPI” value [11] was 0.578. For the same binder, the “FXa assay % of FXa alone, 2.5 nM Ab, 10 nM TFPI” value [12] was 7%, the “FXa assay % of FXa alone, 5 nM Ab, 10 nM TFPI” value [12] was 20.8% and the “FXa assay % of FXa alone, 10 nM Ab, 10 nM TFPI” value [12] was 49.3%. The “FXa assay % of FXa alone, 20 nM Ab, 10 nM TFPI” value [12] was 68.4%, the “FXa assay OD, 2.5 nM Ab, 10 nM TFPI” value [12] was 0.057 and the “FXa assay OD, 5 nM Ab, 10 nM TFPI” value [12] was 0.169. The “FXa assay OD, 10 nM Ab, 10 nM TFPI” value [12] was 0.401, the “FXa assay OD, 20 nM Ab, 10 nM TFPI” value [12] was 0.555 and the Kd [13] was 0.024 nM.

B2: clone 308 (antibody, V domains shown)
VH: B1 VH with E65K
VL: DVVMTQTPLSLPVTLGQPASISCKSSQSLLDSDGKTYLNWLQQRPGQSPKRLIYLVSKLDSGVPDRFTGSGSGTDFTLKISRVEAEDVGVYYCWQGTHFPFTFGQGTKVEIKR
notes: Humanized form of T417, IgG
In the case of B2, the “TFPI inhibitory activity, FXa activity assay, Ab 10 nM” value [1] is reported as about 58.2%, the “TFPI inhibitory activity, FXa activity assay, Ab 40 nM” value [1] is reported as about 85.1% and the “TFPI inhibitory activity, TF/FVIIa/FXa complex assay, Ab 50 nM” value [1] is reported as about 54.2%. For the same binder, the “TFPI inhibitory activity, TF/FVIIa/FXa complex assay, Ab 100 nM” value [1] was about 94.3%, the “ETP vs negative control, thrombin generation assay, Ab 2.5 nM” value [14] was 122% and the “thrombin peak vs blank, thrombin generation assay, Ab 2.5 nM” value [14] was 162%. For the same binder, the “FXa assay % of FXa alone, 0.625 nM Ab, 10 nM TFPI” value [6] was 5%, the “FXa assay % of FXa alone, 2.5 nM Ab, 10 nM TFPI” value [6] was 8% and the “FXa assay OD, 0.625 nM Ab, 10 nM TFPI” value [6] was 0.049 OD. The “FXa assay OD, 2.5 nM Ab, 10 nM TFPI” value [6] was 0.078 OD, the “FXa assay OD, 10 nM Ab, 10 nM TFPI” value [6] was 0.519 OD and the “FXa assay OD, 40 nM Ab, 10 nM TFPI” value [6] was 0.718 OD. The “TF/FVIIa/FXa assay % of 0 nM TFPI, 12.5 nM Ab, 50 nM TFPI” value [7] was 17.9%, the “TF/FVIIa/FXa assay % of 0 nM TFPI, 50 nM Ab, 50 nM TFPI” value [7] was 66.5% and the “TF/FVIIa/FXa assay % of 0 nM TFPI, 100 nM Ab, 50 nM TFPI” value [7] was 104%. The “TF/FVIIa/FXa assay OD, 12.5 nM Ab, 50 nM TFPI” value [7] was 0.143 OD, the “TF/FVIIa/FXa assay OD, 25 nM Ab, 50 nM TFPI” value [7] was 0.248 OD and the “TF/FVIIa/FXa assay OD, 50 nM Ab, 50 nM TFPI” value [7] was 0.533 OD. For the same binder, the “TF/FVIIa/FXa assay OD, 100 nM Ab, 50 nM TFPI” value [7] was 0.833 OD and the Kd [13] was 0.05 nM.
